# Test results from patent US10766960 (dated 2020).
# T1: FcgRIIb (human, UniProt P31994)
# T1 chain: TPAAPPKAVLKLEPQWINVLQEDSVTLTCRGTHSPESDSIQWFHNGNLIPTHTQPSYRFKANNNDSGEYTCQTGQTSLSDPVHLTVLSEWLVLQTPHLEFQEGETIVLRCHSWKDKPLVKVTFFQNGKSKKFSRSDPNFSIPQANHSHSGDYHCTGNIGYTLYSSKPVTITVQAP
# T2: FcgRIIa H (human, UniProt P12318)
# T2 chain: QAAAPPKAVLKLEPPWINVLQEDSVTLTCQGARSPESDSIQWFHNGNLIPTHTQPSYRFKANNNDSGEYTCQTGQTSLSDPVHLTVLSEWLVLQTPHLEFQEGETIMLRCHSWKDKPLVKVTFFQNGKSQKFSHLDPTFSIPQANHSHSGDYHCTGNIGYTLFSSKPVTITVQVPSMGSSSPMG
# T3: FcgRIa (human, UniProt P12314)
# T3 chain: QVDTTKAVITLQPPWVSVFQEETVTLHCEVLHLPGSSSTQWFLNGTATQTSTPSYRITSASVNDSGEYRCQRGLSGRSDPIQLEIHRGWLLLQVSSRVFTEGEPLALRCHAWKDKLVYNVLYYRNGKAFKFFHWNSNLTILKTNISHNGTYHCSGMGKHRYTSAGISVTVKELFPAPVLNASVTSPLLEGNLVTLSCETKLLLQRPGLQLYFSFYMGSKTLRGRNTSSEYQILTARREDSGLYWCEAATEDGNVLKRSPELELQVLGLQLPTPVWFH
# T4: FcgRIIa R (human, UniProt P12318)
# T4 chain: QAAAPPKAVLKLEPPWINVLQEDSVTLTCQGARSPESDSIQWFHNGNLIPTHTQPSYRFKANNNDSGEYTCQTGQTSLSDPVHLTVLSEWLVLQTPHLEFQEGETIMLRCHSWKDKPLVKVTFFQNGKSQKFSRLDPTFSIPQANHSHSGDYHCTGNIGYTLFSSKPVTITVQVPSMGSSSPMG
# Tests used:
# Assay in all cases: SPR
# FcgRIIb = target: T1, FcgRIIb
# FcgRIIa H = target: T2, FcgRIIa H
# FcgRIIIa V = FcgRIIIa V (human, UniProt P08637)
# FcgRIIIa F = FcgRIIIa F (human, UniProt P08637)
# FcgRIa = target: T3, FcgRIa
# FcgRIIa R = target: T4, FcgRIIa R
# Sequence of FcgRIIIa V (P08637 17-208 F176V): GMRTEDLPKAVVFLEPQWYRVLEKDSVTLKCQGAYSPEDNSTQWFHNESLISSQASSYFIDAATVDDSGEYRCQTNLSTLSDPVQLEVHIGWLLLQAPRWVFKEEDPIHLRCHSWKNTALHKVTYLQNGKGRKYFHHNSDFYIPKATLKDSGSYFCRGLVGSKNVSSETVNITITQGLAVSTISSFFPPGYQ
# Sequence of FcgRIIIa F (P08637 17-208): as the sequence (P08637 17-208 F176V) above, with V160F counted along it
Kd (FcgRIIb),Kd (FcgRIIa H),Kd (FcgRIIIa V),Kd (FcgRIIIa F),Kd (FcgRIa),Kd (FcgRIIa R),Binder
190 nM,49 nM,0.54 nM,3.3 nM,0.14 nM,28 nM,H240-Kn222/H240-Hl068/L73-k0 (antibody) chain 1: QDQLVQSGAEVKKPGASVKVSCKASGFNIKDTYIQWVRQAPGQGLEWMGRIDPLRKQTKYREKFEGRVTITADTSTNTAYMELSSLRSEDTAVYYCVRSGREFDYWGQGTLVTVSSASTKGPSVFPLAPSSKSTSGGTAALGCLVKDYFPEPVTVSWNSGALTSGVHTFPAVLQSSGLYSLSSVVTVPSSSLGTQTYICNVNHKPSNTKVDKKVEPKSCDKTHTCPPCPAPEAYWGPMVFLFPPKPKDTLMISRTPEVTCVVVDVSDEDPEVKFNWYVDGVEVHNAKTKPREEQYNATYRVVSVLTVLHQDWLNGKEYKCKVSNKDLPAPIEKTISKAKGQPREPQVCTLPPSRDELTKNQVSLWCLVKGFYPSDIAVEWESNGQPENNYKTTPPVLDSDGSFFLYSKLTVDKSRWQQGNVFSCSVMHEALHNHYTQKSLSLSP chain 2: QDQLVQSGAEVKKPGASVKVSCKASGFNIKDTYIQWVRQAPGQGLEWMGRIDPLRKQTKYREKFEGRVTITADTSTNTAYMELSSLRSEDTAVYYCVRSGREFDYWGQGTLVTVSSASTKGPSVFPLAPSSKSTSGGTAALGCLVKDYFPEPVTVSWNSGALTSGVHTFPAVLQSSGLYSLSSVVTVPSSSLGTQTYICNVNHKPSNTKVDKKVEPKSCDKTHTCPPCPAPELLGGPSVFLFPPKPKDTLMISRTPEVTCVVVDVSHEEPEVKFNWYVDGVEVHNAKTKPREEQYNSTYRVVSVLTVLHQDWLNGKEYKCKVSNDALPKPIEETISKAKGQPREPQVYTLPPSRCELTKNQVSLSCAVKGFYPSDIAVEWESNGQPENNYKTTPPVLDSDGSFFLVSKLTVDKSRWQQGNVFSCSVMHEALHNHYTQKSLSLSP chain 3: DIQMTQSPSSLSASVGDRVTITCRASQDIHKYIAWYQQKPGQAPRLLIQYTSTLQPGVPSRFSGSGSGTDYTFTISSLQPEDIATYYCLQYEQLRTFGGGTKVEIKRTVAAPSVFIFPPSDEQLKSGTASVVCLLNNFYPREAKVQWKVDNALQSGNSQESVTEQDSKDSTYSLSSTLTLSKADYEKHKVYACEVTHQGLSSPVTKSFNRGEC
6100 nM,210 nM,0.73 nM,2.6 nM,0.082 nM,820 nM,H240-Kn213/H240-Hl076/L73-k0 (antibody) chain 1: QDQLVQSGAEVKKPGASVKVSCKASGFNIKDTYIQWVRQAPGQGLEWMGRIDPLRKQTKYREKFEGRVTITADTSTNTAYMELSSLRSEDTAVYYCVRSGREFDYWGQGTLVTVSSASTKGPSVFPLAPSSKSTSGGTAALGCLVKDYFPEPVTVSWNSGALTSGVHTFPAVLQSSGLYSLSSVVTVPSSSLGTQTYICNVNHKPSNTKVDKKVEPKSCDKTHTCPPCPAPEAQWGPMVFLFPPKPKDTLMISRTPEVTCVVVDVSDEEPEVKFNWYVDGVEVHNAKTKPREEQYNATYRVVSVLTVLHQDWLNGKEYKCKVSNKALPAPIEKTISKAKGQPREPQVCTLPPSRDELTKNQVSLWCLVKGFYPSDIAVEWESNGQPENNYKTTPPVLDSDGSFFLYSKLTVDKSRWQQGNVFSCSVMHEALHNHYTQKSLSLSP chain 2: QDQLVQSGAEVKKPGASVKVSCKASGFNIKDTYIQWVRQAPGQGLEWMGRIDPLRKQTKYREKFEGRVTITADTSTNTAYMELSSLRSEDTAVYYCVRSGREFDYWGQGTLVTVSSASTKGPSVFPLAPSSKSTSGGTAALGCLVKDYFPEPVTVSWNSGALTSGVHTFPAVLQSSGLYSLSSVVTVPSSSLGTQTYICNVNHKPSNTKVDKKVEPKSCDKTHTCPPCPAPELLGGPSVFLFPPKPKDTLMISRTPEVTCVVVDVSHEEPEVKFNWYVDGVEVHNAKTKPREEQYNSTYRVVSVLTVLHQDWLNGKEYKCKVSNDALPMPIEETISKAKGQPREPQVYTLPPSRCELTKNQVSLSCAVKGFYPSDIAVEWESNGQPENNYKTTPPVLDSDGSFFLVSKLTVDKSRWQQGNVFSCSVMHEALHNHYTQKSLSLSP chain 3: DIQMTQSPSSLSASVGDRVTITCRASQDIHKYIAWYQQKPGQAPRLLIQYTSTLQPGVPSRFSGSGSGTDYTFTISSLQPEDIATYYCLQYEQLRTFGGGTKVEIKRTVAAPSVFIFPPSDEQLKSGTASVVCLLNNFYPREAKVQWKVDNALQSGNSQESVTEQDSKDSTYSLSSTLTLSKADYEKHKVYACEVTHQGLSSPVTKSFNRGEC
1600 nM,370 nM,4.2 nM,12 nM,0.054 nM,610 nM,H240-Kn205/H240-Hl212/L73-k0 (antibody) chain 1: QDQLVQSGAEVKKPGASVKVSCKASGFNIKDTYIQWVRQAPGQGLEWMGRIDPLRKQTKYREKFEGRVTITADTSTNTAYMELSSLRSEDTAVYYCVRSGREFDYWGQGTLVTVSSASTKGPSVFPLAPSSKSTSGGTAALGCLVKDYFPEPVTVSWNSGALTSGVHTFPAVLQSSGLYSLSSVVTVPSSSLGTQTYICNVNHKPSNTKVDKKVEPKSCDKTHTCPPCPAPEYLGGPSVFLFPPKPKDTLMISRTPEVTCVVVDVSHEDPEVKFNWYVDGVEVHNAKTKPREEQWNCTYRVVSVLTVLHQDWLNGKEYKCKVSNKALPAPIEKTISKAKGQPREPQVCTLPPSRDELTKNQVSLWCLVKGFYPSDIAVEWESNGQPENNYKTTPPVLDSDGSFFLYSKLTVDKSRWQQGNVFSCSVMHEALHNHYTQKSLSLSP chain 2: QDQLVQSGAEVKKPGASVKVSCKASGFNIKDTYIQWVRQAPGQGLEWMGRIDPLRKQTKYREKFEGRVTITADTSTNTAYMELSSLRSEDTAVYYCVRSGREFDYWGQGTLVTVSSASTKGPSVFPLAPSSKSTSGGTAALGCLVKDYFPEPVTVSWNSGALTSGVHTFPAVLQSSGLYSLSSVVTVPSSSLGTQTYICNVNHKPSNTKVDKKVEPKSCDKTHTCPPCPAPELLGGPDVFLFPPKPKDTLMISRTPEVTCVVVDVSHEDPEVKFNWYVDGVEVHNAKTKPREEQYNSTYRVVSVLTVLHQDWLNGKEYKCKVSNKALPAPIEVTISKAKGQPREPQVYTLPPSRCELTKNQVSLSCAVKGFYPSDIAVEWESNGQPENNYKTTPPVLDSDGSFFLVSKLTVDKSRWQQGNVFSCSVMHEALHNHYTQKSLSLSP chain 3: DIQMTQSPSSLSASVGDRVTITCRASQDIHKYIAWYQQKPGQAPRLLIQYTSTLQPGVPSRFSGSGSGTDYTFTISSLQPEDIATYYCLQYEQLRTFGGGTKVEIKRTVAAPSVFIFPPSDEQLKSGTASVVCLLNNFYPREAKVQWKVDNALQSGNSQESVTEQDSKDSTYSLSSTLTLSKADYEKHKVYACEVTHQGLSSPVTKSFNRGEC
6300 nM,140 nM,0.54 nM,1.5 nM,0.083 nM,630 nM,H240-Kn198/H240-Hl076/L73-k0 (antibody) chain 1: QDQLVQSGAEVKKPGASVKVSCKASGFNIKDTYIQWVRQAPGQGLEWMGRIDPLRKQTKYREKFEGRVTITADTSTNTAYMELSSLRSEDTAVYYCVRSGREFDYWGQGTLVTVSSASTKGPSVFPLAPSSKSTSGGTAALGCLVKDYFPEPVTVSWNSGALTSGVHTFPAVLQSSGLYSLSSVVTVPSSSLGTQTYICNVNHKPSNTKVDKKVEPKSCDKTHTCPPCPAPELQWGPMVFLFPPKPKDTLMISRTPEVTCVVVDVSDEEPEVKFNWYVDGVEVHNAKTKPREEQYNATYRVVSVLTVLHQDWLNGKEYKCKVSNKALPAPIEKTISKAKGQPREPQVCTLPPSRDELTKNQVSLWCLVKGFYPSDIAVEWESNGQPENNYKTTPPVLDSDGSFFLYSKLTVDKSRWQQGNVFSCSVMHEALHNHYTQKSLSLSP chain 2: QDQLVQSGAEVKKPGASVKVSCKASGFNIKDTYIQWVRQAPGQGLEWMGRIDPLRKQTKYREKFEGRVTITADTSTNTAYMELSSLRSEDTAVYYCVRSGREFDYWGQGTLVTVSSASTKGPSVFPLAPSSKSTSGGTAALGCLVKDYFPEPVTVSWNSGALTSGVHTFPAVLQSSGLYSLSSVVTVPSSSLGTQTYICNVNHKPSNTKVDKKVEPKSCDKTHTCPPCPAPELLGGPSVFLFPPKPKDTLMISRTPEVTCVVVDVSHEEPEVKFNWYVDGVEVHNAKTKPREEQYNSTYRVVSVLTVLHQDWLNGKEYKCKVSNDALPMPIEETISKAKGQPREPQVYTLPPSRCELTKNQVSLSCAVKGFYPSDIAVEWESNGQPENNYKTTPPVLDSDGSFFLVSKLTVDKSRWQQGNVFSCSVMHEALHNHYTQKSLSLSP chain 3: DIQMTQSPSSLSASVGDRVTITCRASQDIHKYIAWYQQKPGQAPRLLIQYTSTLQPGVPSRFSGSGSGTDYTFTISSLQPEDIATYYCLQYEQLRTFGGGTKVEIKRTVAAPSVFIFPPSDEQLKSGTASVVCLLNNFYPREAKVQWKVDNALQSGNSQESVTEQDSKDSTYSLSSTLTLSKADYEKHKVYACEVTHQGLSSPVTKSFNRGEC
